Data on one molecule can be found in article PMC6941359, “An improved bind-n-seq strategy to determine protein-DNA interactions validated using the bacterial transcriptional regulator YipR”.

In one data set the target is His6-MBP tag alone (UniProt P0AEX9 27-392). The experiment in a line: EMSA; tag-only control; EMSA buffer not given in the material; Bind-n-seq: 20 mM Tris-HCl pH 8, 1 mM TCEP, 2% glycerol, 1 mM EDTA (binding buffer A) plus MgCl2, BSA and 0-500 mM KCl, room temperature 2 h. As to conditions: protein: recombinant; tags: His6-MBP; label: DIG; blunt. (In general: Mobility shift assays separate free from complexed probe on a gel.)

The next data set has as its target YipR (His6-MBP fusion) (Xanthomonas campestris pv. campestris …, UniProt A0A0H2XAU1 1-344). In words: EMSA; EMSA buffer not given in the material; Bind-n-seq: 20 mM Tris-HCl pH 8, 1 mM TCEP, 2% glycerol, 1 mM EDTA (binding buffer A) plus MgCl2, BSA and 0-500 mM KCl, room temperature 2 h. Particulars: protein: recombinant; tags: His6-MBP; label: DIG; blunt.

Chain of YipR (His6-MBP fusion) (A0A0H2XAU1 whole entry, the tested form may be a part): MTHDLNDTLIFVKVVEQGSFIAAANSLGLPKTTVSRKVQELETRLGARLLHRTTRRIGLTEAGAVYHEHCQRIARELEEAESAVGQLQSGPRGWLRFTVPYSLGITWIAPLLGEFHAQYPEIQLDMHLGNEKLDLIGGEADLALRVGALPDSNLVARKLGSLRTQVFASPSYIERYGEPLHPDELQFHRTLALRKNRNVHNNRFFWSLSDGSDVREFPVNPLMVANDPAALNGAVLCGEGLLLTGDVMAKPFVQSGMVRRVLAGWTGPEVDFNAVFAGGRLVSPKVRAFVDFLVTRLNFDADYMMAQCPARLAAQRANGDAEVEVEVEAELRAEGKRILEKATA

B1: XC_2633P (dsDNA)
DNA 1: CCGGCTTTATCCAGATCGCCGACCTGCACCCAGGACCCAGCGGCTTGCTGACGCCCTTCAAGGACACACGGATGTGGATAGCGGGGTTCAAGCCCGACGGGAACCGCGACAAGTAACCCGGCCTCCTACTTCCCAATCCCTCTC
DNA 2: GAGAGGGATTGGGAAGTAGGAGGCCGGGTTACTTGTCGCGGTTCCCGTCGGGCTTGAACCCCGCTATCCACATCCGTGTGTCCTTGAAGGGCGTCAGCAAGCCGCTGGGTCCTGGGTGCAGGTCGGCGATCTGGATAAAGCCGG
Regarding B1, the binding result in the data set with His6-MBP tag alone is on record as “no binding”; with YipR (His6-MBP fusion), “binds”.
